“And” between values parts separate entries of the source, which are not always exact repeats. Equal values may be shown once.
Each sequence was assayed on Bacillus subtilis DB104 (SP-AmyQ fusion secretion) (assay: AmyQ secretion efficiency, weighted average sort bin (1 = best secretion, 10 = worst) (bin number (weighted average, 1-10)); higher = lower secretion efficiency).
Summary of the method: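 Occupied alginate beads were sorted by large-particle flow cytometry into 10 equally populated bins according to green/red fluorescence ratio. Each bead (~65 nL) held fluorescein-starch and about 0.3 cells of a B. subtilis DB104 library expressing mature AmyQ fused to designed signal peptides from the amyE locus, and beads were grown about 13 h at room temperature and stained with nile red before sorting. Bin amplicons were Illumina-sequenced, and the secretion score is the read-frequency-weighted average bin number, normalised to beads per bin, excluding low-abundance sequences.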

First: MNLRKILLSSALSLGMLEDDAPVLATSS
Second: MKSKGSIMACLILFSFTITTFINTETISHFSN
The AmyQ secretion efficiency of the first is lower: 2.76 for the first, 7.54 for the second.

MGGLGTLVLLLLVTGLFMSLFAVTATASAQTG and MRKAVFVIMISFLIATVNVNTAHAAID are the same in AmyQ secretion efficiency: 3.36 for the first, 3.36 for the second.

Going from MKKAAAVLLSLGLVFGFSYGAGHVAEAATD to MKKVSALTPSTTLAITAKAKEL, the AmyQ secretion efficiency rises from 3.51 to 6.89.

First: MNFKKTVRKRRSISALALSVSGVASAHEI
Second: MKRIRIPMTLALGAALTIAPLSFAFTASAEEN
The AmyQ secretion efficiency of the first is higher: 7.55 for the first, 3.82 for the second.

Going from MISKKLWISLLFALTLIFTMAFSNMSAQAAGK to MAIIIAIIAAVIVIAALITFNRNASPG, the AmyQ secretion efficiency rises from 1.95 to 6.99.

First: MFGWMAGLFLAAAVLLCLMVPQQIQGASS
Second: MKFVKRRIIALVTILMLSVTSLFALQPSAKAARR
The AmyQ secretion efficiency of the first is higher: 4.3 for the first, 1.74 for the second.

Compared with MRGKSAVLLSLIMLIAGFLDDDEEDSFSFQM, MKKAFLVFLSVVLVTTVFLTSSFLVKQQESVAQAKQL is lower in AmyQ secretion efficiency: 8.01 for the first, 4.08 for the second.

Going from MKKKQVMLALTAAAGLGLTALHSAPAAKAAPD to MLCVMMLLFSAIASFPVSAQEKDQ, the AmyQ secretion efficiency rises from 2.15 to 5.69.

First: MNKLKRLSMSKSRGYSVFIFSSHALAAQY
Second: MKRLLVSLRVWMVFLMNWVTPDRKTAADAVY
The AmyQ secretion efficiency of the first is higher: 6.58 for the first, 5.95 for the second.

First: MRKKLKWLSFLLGFIILLFLFKYQQSNNDS
Second: MPIKKKVMMCLAVTLVFGSMRKRRRKNSGGFKE
The AmyQ secretion efficiency of the first is lower: 6.25 for the first, 8.69 for the second.

Compared with MKNMSCKLVVSVTLFFSFLTIGPLAHSQNS, MKKIMSAFVGMVLLTIFCFSPQASARRR is higher in AmyQ secretion efficiency: 2.01 for the first, 6.47 for the second.

Going from MRKKLKWLSFLLGFIILLFLFKYQRSNNDS to MTTTIAWFLPLVCVLLISGWLAPAASASAQTT, the AmyQ secretion efficiency falls from 7.7 to 2.38.

First: MKKCLLFLTTIALILRKRRKKAFAKNT
Second: MNKPTKLFSTLALAAGMTAAAAGGAGTIHAQRR
The AmyQ secretion efficiency of the first is higher: 7.29 for the first, 6.62 for the second.

Compared with MRMLWRSLALCGLALTLAPCPQAAEP, MLKKIALTLCPAIVGSLLFFTAPASAHEE is lower in AmyQ secretion efficiency: 6.73 for the first, 2.4 for the second.

Going from MGLGKKLSVAVAASFMSLSISLPGVQYAEG to MKKRKITIAMLILAGIALFVFISPLKSHKT, the AmyQ secretion efficiency rises from 4.06 to 6.94.

First: MLGSTSFVSSLFISSAVLLSILLPSGQAHAQSA
Second: MKRQKQKYLLLGILCSAAVFLIGAPSRALGAEV
The AmyQ secretion efficiency of the first is lower: 2.1 for the first, 3.43 for the second.

Compared with MKLWMRKTLVVLFTIVTFGLVSPPAARMADKP, MKSKGSIMACLILFSFTITTFINTETMSAFSN is higher in AmyQ secretion efficiency: 2.4 for the first, 5.38 for the second.

First: MKKVVLVLSIAGIGGFSVHAASS
Second: MKRLLVSLRVWMVFLMNWVTPDRKTAASAVY
The AmyQ secretion efficiency of the first is higher: 6.91 for the first, 6.03 for the second.

First: MKKIVSILFMFGLVMGFSQFQPSTVFAASD
Second: MKLAKRVSALTPSTTLAITAKKKEL
The AmyQ secretion efficiency of the first is lower: 1.84 for the first, 7.78 for the second.

Compared with MKLAKRVSALTPSTTLAITCKAKEL, MLKKKWMVGLLAGCLAAGGFSYNAFATSD is lower in AmyQ secretion efficiency: 7.57 for the first, 4.28 for the second.

Going from MRSYIKVLTMCFLGLILFVPTALYDNS to MKKKLAAGLTASAIVGTTLVVTPNEAATI, the AmyQ secretion efficiency falls from 8.55 to 6.96.

Going from MLCVMMLLFSAIAEDEVSAQAKDQ to MKKFIVFICFFVLFSVHPIAAAAADS, the AmyQ secretion efficiency falls from 6.57 to 4.38.

First: MRKKLKWLSFLLGFIILLFLFKYQPSNNDS
Second: MKQFAITLSVLCALILLVPTLLVIPFQHNKMAGASV
The AmyQ secretion efficiency of the first is higher: 7.17 for the first, 5.07 for the second.

Compared with MKKLLAAGIIGLLTVEEESPSFAAEK, MKVCQKSIVRFLVSLIIGTFVISVPFMANFQSD is lower in AmyQ secretion efficiency: 6.63 for the first, 5.64 for the second.

First: MKKKQVSHAIIISVMLSFVIAVFRRHRKHASELTP
Second: MKKLILAGIALFVFISPLKSHKT
The AmyQ secretion efficiency of the first is higher: 7.4 for the first, 5.8 for the second.

Going from MGKRGGSGSSLFISSAVLLSILLPSGQAHAQSA to MKKAKKKKLSLGLVFGFSYGAGHVAEAKTK, the AmyQ secretion efficiency rises from 1.07 to 7.52.

Compared with MKKRLIGFLVLVPALIMSGITLLEANKK, MNLRKILLSSALSLGMLVSAAPGLATSS is lower in AmyQ secretion efficiency: 6.63 for the first, 3.12 for the second.

Compared with MRRKRFTALAVFLLCFMPAAKIEHTQASLL, MTSSGFTVFLILLLMLTLVVAPKEKAEAASS is lower in AmyQ secretion efficiency: 5.25 for the first, 1.98 for the second.

First: MFNRLFRGCGGKQKIMAFTLPNSVYAQKP
Second: MKNMSCKLVVSVTLFFSFLTIGPLYHAQNS
The AmyQ secretion efficiency of the first is higher: 7.39 for the first, 5.32 for the second.

Compared with MLKKKWMVGLLAGCLAAGKKKYNAFATEN, MRFTKVVGFLSVLGLAASSILLLFSIVFPLTAQAEKA is lower in AmyQ secretion efficiency: 7.66 for the first, 2.15 for the second.

Going from MKTLRTLCVLMILSGVIFFGLKYDAKDI to MNLRKILLSSALSLGMLVSAAPVLARKR, the AmyQ secretion efficiency rises from 5.31 to 5.51.

First: MKKIWIGMLAAAVLLLMVPKVDLADAA
Second: MKRKTLSSLAISALSLGLLVSAPTASFAAES
The AmyQ secretion efficiency of the first is higher: 4.2 for the first, 2.4 for the second.

Going from MKKELRRKKKRCLSLSPLVSTNEVFAATT to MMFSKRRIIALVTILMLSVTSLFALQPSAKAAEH, the AmyQ secretion efficiency falls from 6.21 to 1.68.

Compared with MFKFKKNGKSRRTAALMSISLFSATASAAST, MNKLKRLSMLTVMIASVFIFSSHILAAQY is lower in AmyQ secretion efficiency: 4.18 for the first, 3.91 for the second.

Compared with MRPVFPLILSAVLFLSCFFGARQTEASASED, MKRRKKKVLTGSVLSLGLLVSASPAFATSP is lower in AmyQ secretion efficiency: 3.13 for the first, 1.34 for the second.

Compared with MRKYTVIASILLSFLSVLSGGHHESKAFPR, MMSLLVSLRVWMVFLMNWVTPDRKTAAAAVY is higher in AmyQ secretion efficiency: 4.58 for the first, 5.61 for the second.

Going from MLKKIALTLCPAIVGSLLFFTDEDDEEASAHVS to MKKRFFGPIILAFILFAGAIAIEE, the AmyQ secretion efficiency rises from 5.14 to 6.41.

Compared with MLKKKWMVGLLAGCLAAGTTSAAFTFFTGFSYNAFATEN, MKLWMRKTLVVLFTIVTFGLVSPPAALMMDKP is lower in AmyQ secretion efficiency: 7.04 for the first, 2.97 for the second.

First: MRMLWRSLALCGLALTLAPCAQADDD
Second: MKTKTLFIFSAILTLSIFAPNETFAQRR
The AmyQ secretion efficiency of the first is higher: 4.62 for the first, 1.31 for the second.

Going from MLKKKWMVGLLAGCLAAGGFSYNAFAKRK to MKLKKRVSYFLVALTMCGGLFVTPAKAVKT, the AmyQ secretion efficiency rises from 5.47 to 6.42.

Going from MKSKWMSGLLLVAVGFSFIALFATQVMVHAGET to MRKSLITLGLASVIGTKASAETL, the AmyQ secretion efficiency falls from 7.59 to 5.6.

Compared with MLKKIALTLCPAIVGSLLFFTAPRSAHVS, MRSKKLWISLLFALTLIFTMAFSNMSAQRAGK is higher in AmyQ secretion efficiency: 5.22 for the first, 6.17 for the second.

Going from MFNRLFRVCFLAALIMAFTLPNSVYGQKP to MLKKIALTLCPAIVGSLLFFTAPASRHVS, the AmyQ secretion efficiency rises from 2.74 to 6.05.

Compared with MKKGIIRFLLVSFVLFFALSTGSTGVQAAPA, MAIIIAIIAAVIVIAALINVRNASPG is higher in AmyQ secretion efficiency: 1.88 for the first, 8.6 for the second.

Going from MTIFLMAVFVIMISFLIATVNVNTAHAAID to MKQKRGRKACLILFSFTITTFINTETISAFSN, the AmyQ secretion efficiency falls from 6.34 to 3.84.

First: MKKGQYRRGSLGLVFGFSYGAGHVAEAKTK
Second: MKLRKVLTGSVLSLGLLPPSSPAFATSP
The AmyQ secretion efficiency of the first is higher: 7.9 for the first, 1.49 for the second.

Compared with MLCVMMLLFSAIASAQAKDQ, MTMLRKIIGWILLLCIIPLFAFTVIASYKEV is higher in AmyQ secretion efficiency: 6.18 for the first, 6.87 for the second.

First: MKKRFSLRRRKRKLFGLTSPAFAAEK
Second: MKKWMAGLFLAAAVLLCLMVPQQSQGASS
The AmyQ secretion efficiency of the first is higher: 7.37 for the first, 5.65 for the second.

Compared with MKRLCLWFTVFSPGKALGAVD, MKRLLVSLRVWMVFLMNWVTVGRKTAAAAVY is lower in AmyQ secretion efficiency: 7.52 for the first, 5.77 for the second.

Compared with MLCVMMLLFSAIASFPVSAQAAKK, MKNMSCKLVVSVTLFFSFLTIGPLFHAQNS is lower in AmyQ secretion efficiency: 6.38 for the first, 5.19 for the second.

Going from MKRKKCSICCAAVLLAGGAAQAEAV to MKKTIMSQKQTAALSTTAFGAHASAKEI, the AmyQ secretion efficiency rises from 6.17 to 7.42.

Compared with MMTTIFAFLTGLMMFGTITAASASPD, MKKKIVAGLAVSAVVQDDPSAAPAEAKTI is higher in AmyQ secretion efficiency: 4.48 for the first, 7.07 for the second.

Going from MLCVMMLLFSAIASFPVSAQQKDQ to MKIRKILLSSALSFGMLISAVPALTAGT, the AmyQ secretion efficiency falls from 6.18 to 4.42.

Going from MAIIIAIIAAVIVIAALITFNVRNASPE to MKKIVSILFMFGLVMGFSQFQPSTVFGADK, the AmyQ secretion efficiency falls from 6.75 to 4.23.

Compared with MKKKKMLSMLTVMIASLFIFSSQALAVQY, MRMLWRSLALCGLALTLAPCCQAAEP is lower in AmyQ secretion efficiency: 3.15 for the first, 1.93 for the second.

Going from MSFIIIPMTLALGAALTIAPLSFASAEEN to MRKKCSVCLWILVLLLSCKRGKSAYAATS, the AmyQ secretion efficiency rises from 6.39 to 6.83.

Going from MNLRKILLSSALSLGMLVSAAPYLATSS to MRGKSSTRKSLIMLIAGFLISFSFQM, the AmyQ secretion efficiency rises from 5.88 to 7.08.

First: MKNMSCKLVVSVTLFFSFLTIGPLAHAQED
Second: MLKKKKTQYQILVGSTLGAFSFSSDASAKHV
The AmyQ secretion efficiency of the first is lower: 2.36 for the first, 5.99 for the second.

Compared with MFKKLLLATSALTFSLSLVLKLRGHAKAQEV, MKKTIMSFVAVAALSTTAFTGAHASAKEI is lower in AmyQ secretion efficiency: 6.07 for the first, 2.34 for the second.

Going from MKKCKRKKKKIALILSLSTNAFAKNT to MFNRLFRVCFLAALIMAFEEEDDEVYAQKP, the AmyQ secretion efficiency falls from 6.9 to 4.05.

Compared with MKLRKVLTGSVLSLGLLVSASPAFAEEE, MRNLTKTSLLLAGLCTAAQMVFVTHASAAPS is lower in AmyQ secretion efficiency: 2.06 for the first, 1.69 for the second.

Compared with MFNRLFRVCFLAALIMAFTVYAQKP, MSIWIVLFLVLIAAAISIFVYVSTGSEK is lower in AmyQ secretion efficiency: 6.93 for the first, 6.85 for the second.

Compared with MKLRKSTKYQSYSLGLLVSASPAFATSP, MKKKLAAGLTASAIVGTTLVVTPAEAATD is lower in AmyQ secretion efficiency: 6.69 for the first, 2.88 for the second.

Work on MKRKKLLSTLLIGIMLLTFAPSAFAKQD yielded an AmyQ secretion efficiency of 1.35.

For MKSKWMSGLLLVAVGFSFTQVMVHAGET, the AmyQ secretion efficiency was 6.97 and 4.43 and 7.09.

From the supplement of paper PMC9942255
